Data from patent US20090117124A1 (Pfizer, published 2009).
Where a chain is given by its changes, count along the chain named. In names and notes the source's numbering stands.

B1: 5.948.1 (recombinant) (antibody, human IgG2, kappa, V domains shown)
VH: QVQLVQSGAEVKKPGASVKVSCKASGYTFTSYDINWVRQATGQGLEWMGWMDPNSGNTGYAQKFQGRVTMTRNTSISTAYMELSSLRSEDTAVYYCARGHYDSDGYYSFSGMDVWGQGTTVTVSS
VL: not shown
notes: Human IgG2 kappa; leader omitted; Two batches were tested in some assays; also called recombinant 5.948.1; 5.948.1 - Batch 1 (762.8 µg/mL)
B2: 5.948.1 Hc-H100Y (antibody, human IgG2, kappa, V domains shown)
VH: B1 VH with H100Y
VL: not shown
notes: Human IgG2 kappa; leader omitted; also called 5.948.1 (H100Y); 5.948.1 H100Y

What was measured:
[1] = molecular target: T1, cynomolgus monkey IgE (in cynomolgus serum, Harlan Sera-Lab Ltd) (cynomolgus monkey); assay: capture ELISA, Test 2, Cyno 6
T1 construct: Serum was the source of IgE; eight serum samples; also called cynomolgus IgE; Cyno 1 to Cyno 8 serum samples
Experimental: (§1) Wells were washed once with 150 μL/well wash buffer (0.05% Tween-20, Sigma, Cat. No. P7949/TBS) then blocked with 150 μL/well 1% BSA (Sigma, Cat. No. A7030) in TBS for 2 hours at room temperature. Wells were washed twice with 150 μL wash buffer. 50 μL human (in-house donors) or cynomolgus serum (Harlan Sera-Lab Ltd, Loughborough) was added from neat to at least 1:16 dilution in 1% BSA/0.05% Tween-20/TBS diluent buffer. […] Wells were incubated for 2 hours at 25° C. before washing (3×150 μL wash buffer). […] Wells were incubated for 1 hour at 25° C. then washed (3×150 μL wash buffer). Streptavidin-HRP (Amersham Bioscience, Cat. No. RPN 1231) diluted 1:1000 in diluent buffer was added to all wells and incubated for 45 minutes at room temperature. Wells were washed (3×150 […] wash buffer). 50 μL OPD (Dako, Cat. No. S2045) was added to all wells and the color allowed to develop for 10 minutes before stopping the reaction with 50 μl 0.6M H₂SO₄ and the absorbance measured at 490 nm.

[2] = molecular target: T1, cynomolgus monkey IgE (in cynomolgus …); assay: capture ELISA, Test 2, Cyno 3
Experimental: as §1

[3] = molecular target: T2, free IgE in human serum (healthy volunteers, in-house donors) (human, UniProt P01854-1 1-428); assay: serum free IgE depletion ELISA; DIN 0011 experiment 2
T2 construct: Kept apart from the bought myeloma IgE because it is native serum IgE of single donors; also called serum IgE
T2 sequence (P01854 other isoform, or with tags, fused parts or gaps): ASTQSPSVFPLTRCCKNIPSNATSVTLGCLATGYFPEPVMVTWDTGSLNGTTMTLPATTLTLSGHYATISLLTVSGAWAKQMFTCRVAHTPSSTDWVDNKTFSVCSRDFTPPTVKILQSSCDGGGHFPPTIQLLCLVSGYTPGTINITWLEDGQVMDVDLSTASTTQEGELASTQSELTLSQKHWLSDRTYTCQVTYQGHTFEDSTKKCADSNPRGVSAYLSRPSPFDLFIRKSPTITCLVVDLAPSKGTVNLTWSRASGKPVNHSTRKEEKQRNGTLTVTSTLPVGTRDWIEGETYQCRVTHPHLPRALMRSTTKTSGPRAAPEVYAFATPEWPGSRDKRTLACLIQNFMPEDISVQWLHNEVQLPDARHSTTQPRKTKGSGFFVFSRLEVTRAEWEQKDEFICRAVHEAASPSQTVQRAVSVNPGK
Experimental: (§2) The next day ELISA plates were washed 1× with 300 μL/well wash buffer (0.05% Tween-20, Sigma, Cat. No. P7949/TBS) then blocked with 150 μL/well 1% BSA (Sigma, Cat. No. A7030) in TBS for 1 hour at room temperature.

[4] = molecular target: T1, cynomolgus monkey IgE (in cynomolgus …); assay: capture ELISA, Test 2, Cyno 2
Experimental: as §1

[5] = molecular target: T1, cynomolgus monkey IgE (in cynomolgus …); assay: capture ELISA, Test 2, Cyno 1
Experimental: as §1

[6] = molecular target: T2, free IgE in human serum (healthy …); assay: serum free IgE depletion ELISA; DIN 0155
Experimental: as §2

[7] = molecular target: T2, free IgE in human serum (healthy …); assay: serum free IgE depletion ELISA; DIN 0321 experiment 1
Experimental: as §2

[8] = molecular target: T2, free IgE in human serum (healthy …); assay: serum free IgE depletion ELISA; DIN 0347
Experimental: as §2

[9] = molecular target: T3, human IgE (Human myeloma, azide free, Serotec, Cat. No. PHP008X2) (human, UniProt P01854 1-546); assay: BIAcore 3000, antibody immobilised, full length human IgE injected
T3 construct: mature; Bought full length human myeloma IgE; in the BIAcore kinetics Serotec PHP008X2 or Europa Bioproducts CP1035K was used; also called full length human IgE; human immunoglobulin E
T3 sequence (P01854 whole entry): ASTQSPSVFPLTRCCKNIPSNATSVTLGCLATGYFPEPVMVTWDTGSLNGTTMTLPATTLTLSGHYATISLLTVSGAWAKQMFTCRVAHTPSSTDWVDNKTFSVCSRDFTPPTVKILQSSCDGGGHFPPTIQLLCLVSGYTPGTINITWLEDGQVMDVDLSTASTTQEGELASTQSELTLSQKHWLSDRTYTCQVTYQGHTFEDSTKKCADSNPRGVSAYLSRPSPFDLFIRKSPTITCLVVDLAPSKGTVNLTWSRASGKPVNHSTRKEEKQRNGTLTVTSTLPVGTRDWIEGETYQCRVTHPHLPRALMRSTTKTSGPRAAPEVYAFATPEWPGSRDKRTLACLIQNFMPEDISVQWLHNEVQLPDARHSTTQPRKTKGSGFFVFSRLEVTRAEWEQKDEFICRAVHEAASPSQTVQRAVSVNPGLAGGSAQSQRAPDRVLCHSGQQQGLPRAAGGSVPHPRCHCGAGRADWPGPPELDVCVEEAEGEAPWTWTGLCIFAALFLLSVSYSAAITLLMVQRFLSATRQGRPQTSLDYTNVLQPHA
Experimental: An immobilization binding response of 50-600 RU was obtained using CM5 sensor chips (BIAcore™) and 10 mM sodium acetate, pH 5.0 as immobilization buffer. The reference flow cell was activated (with EDC-NHS) and blocked (with ethanolamine) but no protein was immobilized. […] A regeneration step was included after the dissociation phase; the conditions used for the various antibodies are given in Table 17 below.
All sensorgrams were fitted locally using BIA evaluation software 4.1 (BIAcore™) and Scrubber software version 2.0 (BioLogic Software).

[10] = molecular target: T2, free IgE in human serum (healthy …); assay: serum free IgE depletion ELISA; DIN 0461
Experimental: as §2

[11] = molecular target: T3, human IgE (Human myeloma, azide free, …); assay: inhibition of IgE binding to RBL-2H3 (FcεR1) cells
Experimental: RBL-2H3 (FcεR1) cells were cultured in MEM-Earles (Invitrogen Cat. No. 2109002) supplemented with 2 mM L-Glutamine (Sigma, Cat. No. G7513), 1 mg/mL Geneticin Liquid (Invitrogen Cat. No. 10131027) and 15% FBS (PAA Laboratories GmbH, Cat. No. A15-043). RBL-2H3 (FcεR1) cells were seeded into sterile 96-well plates (Costar, Fisher Scientific, Cat. No. TKY-521-090S) at 1×10⁵ cells/well and cultured overnight at 37° C., 5% CO₂ in a humidified atmosphere. The next day cells were washed 3× with 150 μL/well wash buffer (10% BSA, Sigma Cat. No A7030, in PBS, Sigma, Cat. No D8537). […] Cells were washed 3× with 150 μL/well wash buffer and then incubated with 50 μL/well streptavidin-HRP (Amersham Bioscience, Cat. No. RPN 1231) diluted 1:250, for 45 minutes. Cells were washed 3× with 150 μL/well wash buffer. 50 μL OPD (Dako, Cat. No. S2045) was added to all wells and the colour allowed to develop for 10 minutes before stopping the reaction with 50 μL 0.6M H₂SO₄ and the absorbance measured at 490 nm.

[12] = molecular target: T2, free IgE in human serum (healthy …); assay: capture ELISA, Test 2, human serum
Experimental: as §1

[13] = molecular target: T2, free IgE in human serum (healthy …); assay: serum free IgE depletion ELISA; DIN 0623 experiment 2
Experimental: as §2

[14] = molecular target: T2, free IgE in human serum (healthy …); assay: serum free IgE depletion ELISA; DIN 0649
Experimental: as §2

[15] = molecular target: T2, free IgE in human serum (healthy …); assay: serum free IgE depletion ELISA; DIN 0321 experiment 2
Experimental: as §2

[16] = molecular target: T1, cynomolgus monkey IgE (in cynomolgus …); assay: capture ELISA, Test 2, Cyno 8
Experimental: as §1

| Binder | IgE concentration detected [1] | IgE concentration detected [2] | IC25 ng/mL [3] | IgE concentration detected [4] | IgE concentration detected [5] | IC25 ng/mL [6] | IC25 ng/mL [7] | IC25 ng/mL [8] | Kd [9] | koff [9] | kon [9] | IC25 ng/mL [10] | IC50 [11] | IgE concentration detected [12] | IC25 ng/mL [13] | IC25 ng/mL [14] | IC25 ng/mL [15] | IgE concentration detected [16] |
| --- | --- | --- | --- | --- | --- | --- | --- | --- | --- | --- | --- | --- | --- | --- | --- | --- | --- | --- |
| B1 | 62 ng/mL | 309 ng/mL | 6.34 µg/mL | 328 ng/mL | 289 ng/mL | 1.81 µg/mL | 1.34 µg/mL | 4.92 µg/mL | 1.32 nM | 3.11e-05 s⁻¹ | 23600 M⁻¹ s⁻¹ | 1.47 µg/mL | < 0.5 µg/mL | 431 ng/mL | 4.13 µg/mL | 1.95 µg/mL | 7.9 µg/mL | 56 ng/mL |
| B2 | 39 ng/mL | 178 ng/mL | 2.96 µg/mL | 199 ng/mL | 170 ng/mL | 0.34 µg/mL | – | 1.33 µg/mL | 0.159 nM | 2.42e-05 s⁻¹ | 151000 M⁻¹ s⁻¹ | 0.34 µg/mL | < 0.5 µg/mL | 408 ng/mL | 0.76 µg/mL | 0.39 µg/mL | 2.55 µg/mL | 36 ng/mL |
